This note sets out measurements from US7132274B2, “Method for identifying modulators of CLK-1 and UbiF activity” (priority 2003, dated 2006).

B1: CDB 717: C. elegans CLK-1 variant, mutation Y119A (protein, UniProt P48376 9-187, looked up, variant Y119A)
NADPH-dependent …: AHTAASRQALIEKIIRVDHAGELGADRIYAGQLAVLQGSSVGSVIKKMWDEEKEHLDTMERLAAKHNVPHTVFSPVFSVAAYALGVGSALLGKEGAMACTIAVEELIGQHANDQLKELLADDPETHKELLKILTRLRDEELHHHDTGVEHDGMKAPAYSALKWIIQTGCKGAIAIAEKI
B2: CDB 710: C. elegans CLK-1 variant, mutation Y90G (protein, UniProt P48376 9-187, looked up, variant Y90G)
NADPH-dependent …: AHTAASRQALIEKIIRVDHAGELGADRIYAGQLAVLQGSSVGSVIKKMWDEEKEHLDTMERLAAKHNVPHTVFSPVFSVAAGALGVGSALLGKEGAMACTIAVEELIGQHYNDQLKELLADDPETHKELLKILTRLRDEELHHHDTGVEHDGMKAPAYSALKWIIQTGCKGAIAIAEKI
B3: CDB 699: C. elegans CLK-1 variant, mutation E148A (protein, UniProt P48376 9-187, looked up, variant E148A)
NADPH-dependent …: AHTAASRQALIEKIIRVDHAGELGADRIYAGQLAVLQGSSVGSVIKKMWDEEKEHLDTMERLAAKHNVPHTVFSPVFSVAAYALGVGSALLGKEGAMACTIAVEELIGQHYNDQLKELLADDPETHKELLKILTRLRDEALHHHDTGVEHDGMKAPAYSALKWIIQTGCKGAIAIAEKI
B4: CDB 694: C. elegans CLK-1 variant, mutation E148K (protein, UniProt P48376 9-187, looked up, variant E148K)
NADPH-dependent …: AHTAASRQALIEKIIRVDHAGELGADRIYAGQLAVLQGSSVGSVIKKMWDEEKEHLDTMERLAAKHNVPHTVFSPVFSVAAYALGVGSALLGKEGAMACTIAVEELIGQHYNDQLKELLADDPETHKELLKILTRLRDEKLHHHDTGVEHDGMKAPAYSALKWIIQTGCKGAIAIAEKI
B5: CDB 691: C. elegans CLK-1 variant, mutation E147K (protein, UniProt P48376 9-187, looked up, variant E147K)
NADPH-dependent …: AHTAASRQALIEKIIRVDHAGELGADRIYAGQLAVLQGSSVGSVIKKMWDEEKEHLDTMERLAAKHNVPHTVFSPVFSVAAYALGVGSALLGKEGAMACTIAVEELIGQHYNDQLKELLADDPETHKELLKILTRLRDKELHHHDTGVEHDGMKAPAYSALKWIIQTGCKGAIAIAEKI
B6: CDB 707: C. elegans CLK-1 variant, mutation E147A (protein, UniProt P48376 9-187, looked up, variant E147A)
NADPH-dependent …: AHTAASRQALIEKIIRVDHAGELGADRIYAGQLAVLQGSSVGSVIKKMWDEEKEHLDTMERLAAKHNVPHTVFSPVFSVAAYALGVGSALLGKEGAMACTIAVEELIGQHYNDQLKELLADDPETHKELLKILTRLRDAELHHHDTGVEHDGMKAPAYSALKWIIQTGCKGAIAIAEKI
B7: CDB 690: C. elegans CLK-1 variant, mutation C177A (protein, UniProt P48376 9-187, looked up, variant C177A)
NADPH-dependent …: AHTAASRQALIEKIIRVDHAGELGADRIYAGQLAVLQGSSVGSVIKKMWDEEKEHLDTMERLAAKHNVPHTVFSPVFSVAAYALGVGSALLGKEGAMACTIAVEELIGQHYNDQLKELLADDPETHKELLKILTRLRDEELHHHDTGVEHDGMKAPAYSALKWIIQTGAKGAIAIAEKI
B8: CDB 715: C. elegans CLK-1 variant, mutation H151A (protein, UniProt P48376 9-187, looked up, variant H151A)
NADPH-dependent …: AHTAASRQALIEKIIRVDHAGELGADRIYAGQLAVLQGSSVGSVIKKMWDEEKEHLDTMERLAAKHNVPHTVFSPVFSVAAYALGVGSALLGKEGAMACTIAVEELIGQHYNDQLKELLADDPETHKELLKILTRLRDEELHAHDTGVEHDGMKAPAYSALKWIIQTGCKGAIAIAEKI
B9: CDB 711: C. elegans CLK-1 variant, mutation S51P (protein, UniProt P48376 9-187, looked up, variant S51P)
NADPH-dependent …: AHTAASRQALIEKIIRVDHAGELGADRIYAGQLAVLQGSSVGPVIKKMWDEEKEHLDTMERLAAKHNVPHTVFSPVFSVAAYALGVGSALLGKEGAMACTIAVEELIGQHYNDQLKELLADDPETHKELLKILTRLRDEELHHHDTGVEHDGMKAPAYSALKWIIQTGCKGAIAIAEKI
B10: CDB 709: C. elegans CLK-1 variant, mutation Q174A (protein, UniProt P48376 9-187, looked up, variant Q174A)
NADPH-dependent …: AHTAASRQALIEKIIRVDHAGELGADRIYAGQLAVLQGSSVGSVIKKMWDEEKEHLDTMERLAAKHNVPHTVFSPVFSVAAYALGVGSALLGKEGAMACTIAVEELIGQHYNDQLKELLADDPETHKELLKILTRLRDEELHHHDTGVEHDGMKAPAYSALKWIIATGCKGAIAIAEKI
B11: CDB 698: C. elegans CLK-1 variant, mutation I115H (protein, UniProt P48376 9-187, looked up, variant I115H)
NADPH-dependent …: AHTAASRQALIEKIIRVDHAGELGADRIYAGQLAVLQGSSVGSVIKKMWDEEKEHLDTMERLAAKHNVPHTVFSPVFSVAAYALGVGSALLGKEGAMACTIAVEELHGQHYNDQLKELLADDPETHKELLKILTRLRDEELHHHDTGVEHDGMKAPAYSALKWIIQTGCKGAIAIAEKI
B12: CDB 689: C. elegans CLK-1 variant, mutation C107A (protein, UniProt P48376 9-187, looked up, variant C107A)
NADPH-dependent …: AHTAASRQALIEKIIRVDHAGELGADRIYAGQLAVLQGSSVGSVIKKMWDEEKEHLDTMERLAAKHNVPHTVFSPVFSVAAYALGVGSALLGKEGAMAATIAVEELIGQHYNDQLKELLADDPETHKELLKILTRLRDEELHHHDTGVEHDGMKAPAYSALKWIIQTGCKGAIAIAEKI
B13: C. elegans clk-1: wild-type C. elegans CLK-1 (DMQ hydroxylase) expressed from pET16 in JF496 (protein)
chain: MFRVITRGAHTAASRQALIEKIIRVDHAGELGADRIYAGQLAVLQGSSVGSVIKKMWDEEKEHLDTMERLAAKHNVPHTVFSPVFSVAAYALGVGSALLGKEGAMACTIAVEELIGQHYNDQLKELLADDPETHKELLKILTRLRDEELHHHDTGVEHDGMKAPAYSALKWIIQTGCKGAIAIAEKI
modifications: C. elegans; C. elegans CLK-1
notes: wild-type C. elegans CLK-1 (DMQ hydroxylase) expressed from pET16 in JF496
B14: hclk-1: human clk-1 cDNA expressed in JF496 (protein, listed as Homo sapiens)
chain: MSCAGAAAAPRLWRLRPGARRSLSAYGRRTSVRFRSSGMTLDNISRAAVDRIIRVDHAGEYGANRIYAGQMAVLGRTSVGPVIQKMWDQEKDHLKKFNELMVTFRVRPTVLMPLWNVLGFALGAGTALLGKEGAMACTVAVEESIAHHYNNQIRTLMEEDPEKYEELLQLIKKFRDEELEHHDIGLDHDAELAPAYAVLKSIIQAGCRVAIYLSERL
modifications: Human CLK-1
notes: human clk-1 cDNA expressed in JF496
B15: mclk-1: mouse clk-1 cDNA expressed in JF496 (protein, listed as Mus musculus)
chain: MSAAGAIAAASVGRLRTGVRRPFSEYGRGLIIRCHSSGMTLDNINRAAVDRIIRVDHAGEYGANRIYAGQMAVLGRTSVGPVIQKMWDQEKNHLKKFNELMIAFRVRPTVLMPLWNVAGFALGAGTALLGKEGAMACTVAVEESIANHYNNQIRMLMEEDPEKYEELLQVIKQFRDEELEHHDTGLDHDAELAPAYALLKRIIQAGCSAAIYLSERF
modifications: Mouse CLK-1
notes: mouse clk-1 cDNA expressed in JF496
B16: E. coli UbiF: E. coli UbiF expressed from a plasmid in JF496 (protein)
chain: MTNQPTEIAIVGGGMVGGALALGLAQHGFAVTVIEHAEPAPFVADSQPDVRISAISAASVSLLKGLGVWDAVQAMRCHPYRRLETWEWETAHVVFDAAELKLPLLGYMVENTVLQQALWQALEAHPKVTLRVPGSLIALHRHDDLQELELKGGEVIRAKLVIGADGANSQVRQMAGIGVHAWQYAQSCMLISVQCENDPGDSTWQQFTPDGPRAFLPLFDNWASLVWYDSPARIRQLQNMNMAQLQAEIAKHFPSRLGYVTPLAAGAFPLTRRHALQYVQPGLALVGDAAHTIHPLAGQGVNLGYRDVDALIDVLVNARSYGEAWASYPVLKRYQMRRMADNFIMQSGMDLFYAGFSNNLPPLRFMRNLGLMAAERAGVLKRQALKYALGL
modifications: E. coli; ubiF wildtype allele
notes: E. coli UbiF expressed from a plasmid in JF496

The subject of the first assay is E. coli JF496 (ubiF411). In words: JF496 complementation (growth rescue) assay. It counts as cell-based. To be noted: C. elegans CLK-1 variants expressed in JF496; growth rate relative to wild type CLK-1. The text has this: JF496 is useful for complementation assays using eukaryotic clk-1. As with all other ubi mutants, JF496 has a weak growth in liquid culture, and cannot use succinate as a unique carbon source. These characteristics were used to develop a gain-of-function assay, where JF496 was transformed with a eukaryotic clk-1 (here from C. elegans) and then wild-type growth was identified. Transgenic E. coli ubiF (Kwon et al., 2000 FEMS Microbiol Lett, 186, 157–161), and clk-1 from proteobacteria (Stenmark et al., 2001 J Biol Chem, 276, 33297–33300) have been tested in JF496.
Growth conditions—For complementation assays, plasmids are freshly transformed by electroporation into E. coli JF496 ubiF(DE3) and grown overnight at 37° C. in 5 mL LB with 50 μg/mL ampicillin. The cultures are diluted 1/10 and OD600 measured. A bacterial volume corresponding to an OD600 of 0.03 in 5 mL is taken, centrifuged and resuspended in 100 μl of M9 medium. It is then added into 5 mL M9 containing 1 mM MgSO4, 20 μM CaCl2, 0.5 μg/mL thiamine, 0.12% casamino acids, 40 μg/mL D-L-methionine, 100 μg/mL L-asparagine, trace metals and 50 μg/mL ampicillin. This medium is supplemented with 0.5% glucose or 0.5% succinate. E. coli JF496 is grown at 37° C. for 8 hours. Samples (700-μL) are taken at 2-hour intervals and the OD600 is measured in order to determine the growth rate.
Growth conditions—as described above in Section 6.1
A selection of CLK-1 variants were constructed by site-directed mutagenesis and cloned into the JF496 system to assess their enzymatic activity relative to the wild type. The respective strains of JF496-clk-1 variants were cultured as described and the growth rate of each were measured. The results as shown in Table 4 indicate that certain residues and regions are not tolerant of amino acid substitution (amino acid substitution is indicated by one-letter codes).
With B1, the “Activity in JF496 system” value is given as “Inactive”.

For B2, the “Activity in JF496 system” value was “Active”.

In the case of B3, the “Activity in JF496 system” value is “Inactive”.

In the case of B4, the “Activity in JF496 system” value is on record as “Inactive”.

With B5, the “Activity in JF496 system” value is “Active”.

Take B6: the “Activity in JF496 system” value is reported as “Active”.

On to B7, for which the “Activity in JF496 system” value is listed as “Active”.

On to B8, for which the “Activity in JF496 system” value is “Inactive”.

For B9, the “Activity in JF496 system” value is given as “Active”.

Turning to B10, the “Activity in JF496 system” value was “Active”.

Regarding B11, the “Activity in JF496 system” value is given as “Inactive”.

As to B12, the “Activity in JF496 system” value is listed as “Active”.

The same assay, now with this note: FIG. 6; JF496 transformed with C. elegans clk-1.
As to B13, the “rescue of JF496 growth defect” value is listed as “able to rescue the JF496 growth defect”.

The assay is the same for the next values; noted with them: JF496; M9 buffer containing 0.5% glucose.
On to B14, for which the rescuing capacity result is reported as “lower than that of mclk-1 or C. elegans clk-1”.

The same assay, now with this note: JF496; M9 buffer containing 0.5% glucose; compared with vector pET16 control.
As to B15, the “rescue of bacterial growth under selective condition” value (“rescue … under selective condition” for short) is reported as “rescues bacterial growth”.

For the molecule B16, the “rescue … under selective condition” value is “rescued bacterial growth”.

In the case of B14, the “rescue … under selective condition” value is recorded as “rescues bacterial growth”.
